Laboratory results reported in paper PMC2965767, “Identification and Genome-Wide Prediction of DNA Binding Specificities for the ApiAP2 Family of Regulators from the Malaria Parasite”.

Columns and labels:
[1] = molecular target: T1, PF07_0126 DLDext (PF3D7_0730300, AP2 domain transcription factor AP2-L, putative) (Plasmodium falciparum) (UniProt Q8IBF6); conditions: PBM; highest protein concentration obtained; buffer not given; scale: PBM E-score of the seed 8-mer
T1 sequence: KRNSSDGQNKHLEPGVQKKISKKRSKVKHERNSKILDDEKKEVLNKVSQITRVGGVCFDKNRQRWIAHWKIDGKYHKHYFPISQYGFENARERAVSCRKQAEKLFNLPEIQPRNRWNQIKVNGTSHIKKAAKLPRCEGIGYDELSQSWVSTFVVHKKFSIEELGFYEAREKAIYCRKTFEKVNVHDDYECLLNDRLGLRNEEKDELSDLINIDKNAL

[2] = molecular target: T2, PF11_0091 D1 (PF3D7_1107800, AP2 domain transcription factor, putative) (Plasmodium falciparum) (UniProt Q8IIS4); conditions: PBM; highest protein concentration obtained; buffer not given; scale: PBM E-score of the seed 8-mer
T2 sequence: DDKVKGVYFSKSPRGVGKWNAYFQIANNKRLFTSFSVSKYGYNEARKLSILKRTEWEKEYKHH

[3] = molecular target: T3, PF11_0442 D1ext (PF3D7_1143100, AP2 domain transcription factor AP2-O, putative) (Plasmodium falciparum) (UniProt Q8IHT5); conditions: PBM; highest protein concentration obtained; buffer not given; scale: PBM E-score of the seed 8-mer
T3 sequence: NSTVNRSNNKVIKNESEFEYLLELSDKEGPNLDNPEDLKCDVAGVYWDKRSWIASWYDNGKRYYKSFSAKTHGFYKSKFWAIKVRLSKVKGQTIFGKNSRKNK

[4] = molecular target: T4, PF13_0235 D1ext (PF3D7_1342900, AP2 domain transcription factor, putative) (Plasmodium falciparum) (UniProt C0H5G5); conditions: PBM; highest protein concentration obtained; buffer not given; scale: PBM E-score of the seed 8-mer
T4 sequence: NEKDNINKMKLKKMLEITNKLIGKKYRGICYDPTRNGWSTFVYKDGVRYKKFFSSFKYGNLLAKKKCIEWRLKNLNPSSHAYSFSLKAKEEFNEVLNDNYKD

[5] = molecular target: T5, MAL8P1.153 D1 (PF3D7_0802100, AP2 domain transcription factor, putative) (Plasmodium falciparum) (UniProt Q8IAM1); conditions: PBM; highest protein concentration obtained; buffer not given; scale: PBM E-score of the seed 8-mer
T5 sequence: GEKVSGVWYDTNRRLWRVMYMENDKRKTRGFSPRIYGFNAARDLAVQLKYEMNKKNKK

[6] = molecular target: T6, PFF0200c DLD (PF3D7_0604100, AP2 domain transcription factor) (Plasmodium falciparum) (UniProt C6KSN9); conditions: PBM; highest protein concentration obtained; buffer not given; scale: PBM E-score of the seed 8-mer
T6 sequence: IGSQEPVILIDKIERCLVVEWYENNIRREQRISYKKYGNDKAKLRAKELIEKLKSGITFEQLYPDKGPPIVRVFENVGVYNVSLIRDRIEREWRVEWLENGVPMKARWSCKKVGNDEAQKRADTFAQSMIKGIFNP

[7] = molecular target: T7, PFD0985w D1 (ApiAP2) (Plasmodium falciparum) (UniProt Q8I1N6); conditions: PBM; highest protein concentration obtained; buffer not given; scale: PBM E-score of the seed 8-mer
T7 sequence: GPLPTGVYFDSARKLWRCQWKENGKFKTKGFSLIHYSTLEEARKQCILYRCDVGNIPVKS

[8] = molecular target: T8, PF10_0075 D2ext (PF3D7_1007700, AP2 domain transcription factor AP2-I) (Plasmodium falciparum) (UniProt Q8IJW6); conditions: PBM; highest protein concentration obtained; buffer not given; scale: PBM E-score of the seed 8-mer
T8 sequence: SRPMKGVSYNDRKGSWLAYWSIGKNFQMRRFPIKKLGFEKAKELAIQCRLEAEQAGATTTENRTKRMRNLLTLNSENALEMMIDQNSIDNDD

[9] = molecular target: T9, PFE0840c D2 (PF3D7_0516800, AP2 domain transcription factor AP2-O2, putative) (Plasmodium falciparum) (UniProt Q8I3U0); conditions: PBM; highest protein concentration obtained; buffer not given; scale: PBM E-score of the seed 8-mer
T9 sequence: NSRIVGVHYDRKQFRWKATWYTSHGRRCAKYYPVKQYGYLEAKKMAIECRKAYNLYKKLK

[10] = molecular target: T10, PF13_0026 D1 (PF3D7_1305200, AP2 domain transcription factor, putative) (Plasmodium falciparum) (UniProt Q8IER4); conditions: PBM; highest protein concentration obtained; buffer not given; scale: PBM E-score of the seed 8-mer
T10 sequence: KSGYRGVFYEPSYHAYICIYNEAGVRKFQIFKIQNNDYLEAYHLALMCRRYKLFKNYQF

[11] = molecular target: T11, PF14_0079 D1 (PF3D7_1408200, AP2 domain transcription factor AP2-G2, putative) (Plasmodium falciparum) (UniProt Q8IM14); conditions: PBM; highest protein concentration obtained; buffer not given; scale: PBM E-score of the seed 8-mer
T11 sequence: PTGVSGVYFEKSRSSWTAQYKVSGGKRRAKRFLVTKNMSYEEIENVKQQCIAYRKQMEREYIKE

[12] = molecular target: T12, PFL1900w D1ext (PF3D7_1239200, AP2 domain transcription factor, putative) (Plasmodium falciparum) (UniProt Q8I531); conditions: PBM; highest protein concentration obtained; buffer not given; scale: PBM E-score of the seed 8-mer
T12 sequence: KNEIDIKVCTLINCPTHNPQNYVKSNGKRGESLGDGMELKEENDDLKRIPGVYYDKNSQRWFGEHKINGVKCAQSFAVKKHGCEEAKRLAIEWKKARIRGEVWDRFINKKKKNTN

[13] = molecular target: T13, PFF0670w D1 (PF3D7_0613800, AP2 domain transcription factor, putative) (Plasmodium falciparum) (UniProt C6KSY0); conditions: PBM; highest protein concentration obtained; buffer not given; scale: PBM E-score of the seed 8-mer
T13 sequence: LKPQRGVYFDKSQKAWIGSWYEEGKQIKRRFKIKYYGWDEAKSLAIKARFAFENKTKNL

[14] = molecular target: T14, PFD0985w_D2 (AP2 domain 2) (Plasmodium falciparum, UniProt Q8I1N6 3268-3321); assay: EMSA; poly(dI-dC); LightShift EMSA buffer, 2.5% glycerol, 5 mM MgCl2, 10 mM EDTA, 50 mM KCl, 0.05% NP-40, 50 ng/uL poly(dI-dC), 10 fmol biotin probe, 50 or 250x competitor, room temperature 20 min; conditions: protein: recombinant; tags: N-terminal GST (pGEX-4T1); label: 5' biotin (probe); blunt
T14 sequence: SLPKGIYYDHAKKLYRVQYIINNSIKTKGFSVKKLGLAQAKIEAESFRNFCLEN

[15] = molecular target: T14, PFD0985w_D2 (AP2 domain 2); assay: EMSA; poly(dI-dC); bound equally well as primary motif; LightShift EMSA buffer, 2.5% glycerol, 5 mM MgCl2, 10 mM EDTA, 50 mM KCl, 0.05% NP-40, 50 ng/uL poly(dI-dC), 10 fmol biotin probe, 50 or 250x competitor, room temperature 20 min; conditions: protein: recombinant; tags: N-terminal GST (pGEX-4T1); label: 5' biotin (probe); blunt
[16] = molecular target: T15, PF13_0235 D1ext (PF3D7_1342900, AP2 domain transcription factor, putative) (Plasmodium falciparum, UniProt C0H5G5 2339-2440); assay: EMSA; 5 mM MgCl2 with 10 mM EDTA; LightShift buffer, 2.5% glycerol, 50 mM KCl, 0.05% NP-40, 50 ng/uL poly(dI-dC); room temperature, 20 min; conditions: tags: N-terminal GST (pGEX-4T1), kept; label: 5' biotin
T15 sequence: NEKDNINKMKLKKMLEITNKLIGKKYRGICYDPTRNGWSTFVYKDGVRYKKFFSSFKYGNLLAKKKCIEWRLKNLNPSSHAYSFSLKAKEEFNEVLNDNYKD

[17] = molecular target: T16, PFL1900w DLD (PF3D7_1239200, AP2 domain transcription factor, putative) (Plasmodium falciparum, UniProt Q8I531 2149-2347); assay: as above; conditions: tags: N-terminal GST (pGEX-4T1), kept; label: 5' biotin
T16 sequence: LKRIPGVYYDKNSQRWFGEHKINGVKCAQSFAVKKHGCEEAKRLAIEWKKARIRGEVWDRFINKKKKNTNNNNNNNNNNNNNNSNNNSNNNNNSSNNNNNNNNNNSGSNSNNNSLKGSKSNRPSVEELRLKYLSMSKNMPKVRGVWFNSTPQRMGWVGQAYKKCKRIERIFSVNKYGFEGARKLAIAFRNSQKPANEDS

[18] = molecular target: PF11_0091 D1 (PF3D7_1107800, AP2 domain transcription factor, putative) (Plasmodium falciparum, UniProt Q8IIS4 1486-1548); assay: as above; conditions: tags: N-terminal GST (pGEX-4T1), kept; label: 5' biotin
[19] = molecular target: T17, PF13_0267 D1 (PF3D7_1350900, AP2 domain transcription factor AP2-O4, putative) (Plasmodium falciparum, UniProt A0A5K1K8Z4 400-521); assay: as above; conditions: tags: N-terminal GST (pGEX-4T1), kept; label: 5' biotin
T17 sequence: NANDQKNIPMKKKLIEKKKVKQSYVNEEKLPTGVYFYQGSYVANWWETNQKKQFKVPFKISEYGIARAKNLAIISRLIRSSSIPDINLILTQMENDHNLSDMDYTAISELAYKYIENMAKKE

## AATTTCC (double strand) [PF07_0126_DLD primary motif]
[1]
  binding signal: 0.467

## AGCATAC (double strand) [PF11_0091 primary motif]
[2]
  binding signal: 0.472

## AGCTAGCT (double strand) [PF11_0442 primary motif]
[3]
  binding signal: 0.478

## AWGGKMCC / GGKMCCWT [PF13_0235_D1 Secondary motif 1]
[4]
  binding signal: > 0.45

## CACACACA (double strand) [MAL8P1.153 primary motif]
[5]
  binding signal: 0.477

## GCCCCGC (double strand) [PF13_0235_D1 primary motif]
[4]
  binding signal: 0.494

## GTGCAC (double strand) [PFF0200c_DLD primary motif]
[6]
  binding signal: 0.481

## GTGTGTG (double strand) [PFD0985w_D1 primary motif]
[7]
  binding signal: 0.497

## TCTTGCC (double strand) [PF10_0075_D2 primary motif]
[8]
  binding signal: 0.468

## TGACATCA (double strand) [PFE0840c_D2 primary motif]
[9]
  binding signal: 0.472

## TGCACACAC (double strand) [PF13_0026 primary motif]
[10]
  binding signal: 0.495

## TGCNACCA (double strand) [PF14_0079 primary motif]
[11]
  binding signal: 0.487

## TTCTACA (double strand) [PFL1900w_D1 primary motif]
[12]
  binding signal: 0.46

## WTAAGCC (double strand) [PFF0670w_D1 primary motif]
[13]
  binding signal: 0.465

B1: PFD0985w_D2-1° (dsDNA)
DNA 1: AATATTATAATAGTCGTAGCCATCAATGTGTAACACATGGTAATATAGATTTTCGTTTATATT
DNA 2: AATATAAACGAAAATCTATATTACCATGTGTTACACATTGATGGCTACGACTATTATAATATT
[14]
  binding result: binds

B2: PFD0985w_D2-2° (dsDNA)
DNA 1: AATATTATAATAGTCGTAGCCATCAATCCACACACCATGGTAATATAGATTTTCGTTTATATT
DNA 2: AATATAAACGAAAATCTATATTACCATGGTGTGTGGATTGATGGCTACGACTATTATAATATT
[15]
  binding result: binds

B3: hsp86 (dsDNA)
DNA 1: TTTTAAAAAAAAAAAAAAAGCCCCGCGGAAAGGGGCCATTGGATATATATTTAGTATTCC
DNA 2: GGAATACTAAATATATATCCAATGGCCCCTTTCCGCGGGGCTTTTTTTTTTTTTTTAAAA
[16]
  binding result: binds

B4: hsp86-MUT3 (dsDNA)
DNA 1: TTTTAAAAAAAAAAAAAAAGTATAGCGGAAATATACCATTGGATATATATTTAGTATTCC
DNA 2: GGAATACTAAATATATATCCAATGGTATATTTCCGCTATACTTTTTTTTTTTTTTTAAAA
[16]
  binding result: no binding

B5: PFL1900w_DLD-1 (motif rank) (dsDNA)
DNA 1: AATATTATAATAGTCGTAGCCATCAATTCTACAAAATGGTAATATAGATTTTCGTTTATATT
DNA 2: AATATAAACGAAAATCTATATTACCATTTTGTAGAATTGATGGCTACGACTATTATAATATT
[17]
  binding result: binds

B6: PFL1900w_DLD-2 (motif rank) (dsDNA)
DNA 1: AATATTATAATAGTCGTAGCCATCAATACGACATCATGGTAATATAGATTTTCGTTTATATT
DNA 2: AATATAAACGAAAATCTATATTACCATGATGTCGTATTGATGGCTACGACTATTATAATATT
[17]
  binding result: binds

B7: gbp130 (dsDNA)
DNA 1: AAGCAAATAAGATATTCCAAAAAAAAGTATTCTAATGTGTACTAATAAACCTTTATATAA
DNA 2: TTATATAAAGGTTTATTAGTACACATTAGAATACTTTTTTTTGGAATATCTTATTTGCTT
[18]
  binding result: binds

B8: pfc0975c (dsDNA)
DNA 1: TTATGATGATACATAAATTACTGATCTTTCTAGGTGCGCTGCTACCATTATCGTGAATAA
DNA 2: TTATTCACGATAATGGTAGCAGCGCACCTAGAAAGATCAGTAATTTATGTATCATCATAA
[19]
  binding result: binds

B9: pfc0975c-MUT (dsDNA)
DNA 1: TTATGATGATACATAAATTACTGATCTTTCAAAGTGCGCTGCTACCATTATCGTGAATAA
DNA 2: TTATTCACGATAATGGTAGCAGCGCACTTTGAAAGATCAGTAATTTATGTATCATCATAA
[19]
  binding result: no binding
